From paper doi:10.1101/2022.11.03.515106 (bioRxiv, 2022)
Each block holds one binder with its values, some of them ahead of it.

What was measured:
GFP-DBR1 = target: T1, GFP-DBR1 (human, UniProt Q9UK59 1-544); assay: pull-down
T1 sequence: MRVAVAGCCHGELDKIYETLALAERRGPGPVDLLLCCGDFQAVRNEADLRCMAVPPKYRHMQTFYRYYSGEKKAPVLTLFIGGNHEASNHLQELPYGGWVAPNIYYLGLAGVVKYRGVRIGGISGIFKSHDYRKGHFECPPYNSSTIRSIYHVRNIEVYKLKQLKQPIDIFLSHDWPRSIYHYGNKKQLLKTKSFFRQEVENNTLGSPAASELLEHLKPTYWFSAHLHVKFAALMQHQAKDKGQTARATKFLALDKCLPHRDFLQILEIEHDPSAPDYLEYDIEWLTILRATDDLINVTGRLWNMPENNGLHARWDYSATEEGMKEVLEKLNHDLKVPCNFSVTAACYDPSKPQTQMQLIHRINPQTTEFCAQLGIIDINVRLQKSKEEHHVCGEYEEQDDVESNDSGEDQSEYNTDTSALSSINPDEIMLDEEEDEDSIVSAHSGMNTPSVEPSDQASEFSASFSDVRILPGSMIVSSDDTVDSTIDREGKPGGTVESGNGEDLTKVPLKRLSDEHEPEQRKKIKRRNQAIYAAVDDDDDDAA

His-Flag-DBR1 = target: T2, His-Flag-DBR1 (human, UniProt Q9UK59 1-544); assay: pull-down
T2 sequence (looked up): T1 sequence

binding result (GFP-DBR1): binds
B1: TTDN1-mCherry (natural protein, human, UniProt Q8TAP9 1-179, looked up)
chain: MQRQNFRPPTPPYPGPGGGGWGSGSSFRGTPGGGGPRPPSPRDGYGSPHHTPPYGPRSRPYGSSHSPRHGGSFPGGRFGSPSPGGYPGSYSRSPAGSQQQFGYSPGQQQTHPQGSPRTSTPFGSGRVREKRMSNELENYFKPSMLEDPWAGLEPVSVVDISQQYSNTQTFTGKKGRYFC

binding result (His-Flag-DBR1): binds
B2: GST-TTDN1 (natural protein, human, UniProt Q8TAP9 1-179, looked up)
chain: B1 chain
